Biological target: DAT 587–590(4A) mutant expressed in PC12 cells (human, UniProt Q01959 1-620, 587–590(4A))
Assay: co-IP

basal interaction with Rin, % of wild type DAT: 300 % of wild type DAT/Rin interactions
B1: Rin, endogenous in PC12 cells (natural protein, rat (endogenous in PC12), UniProt Q5BJQ5 1-217, looked up)
chain: MEAENEAHCCPGSSSGGSREYKVVMLGAGGVGKSAVTMQFISHQFPDYHDPTIEDAYKTQVRIDNEPAYLDILDTAGQAEFTAMREQYMRGGEGFIICYSVTDRQSFQEAAKFKELIFQVRHTYEIPLVLVGNKIDLEQFRQVSTEEGMTLARDYNCAFFETSAALRFGIDDAFQGLVREIRRKESMLSLVERKLKRKDSLWKKIKASLKKKRENMI

— publication PMC3205929 (The Journal of neuroscience : the official journal of the …, 2011)
